Laboratory results reported in patent US20110217237A1 (AbbVie / Abbott, published 2011).
Changes are numbered by the printed parent chain.

B1: h1A11.A6 (antibody, V domains shown)
VH: EVQLVESGGGLVQPGGSLRLSCAASGFTFRHFPMAWVRQAPGKGLEWVATISSSDAWPSYRDSVKGRFTISRDNAKNSLYLQMNSLRAEDTAVYYCSRGYYNSPFAYWGQGTLVTVSS
VL: DIQMTQSPSSLSASVGDRVTITCRASEDIYSNLAWYQQKPGKAPKLLIYDTNNLADGVPSRFSGSGSGTDFTLTISSLQPEDFATYYCQQYNNYPPTFGQGTKLEIK
notes: also called h1A11.A6 VH / h1A11VL.1
B2: h1A11.A11 (antibody, V domains shown)
VH: B1 VH with A56D, S59N, N77S
VL: B1 VL
notes: also called h1A11.A11 VH / h1A11VL.1
B3: h1A11.A8 (antibody, V domains shown)
VH: B1 VH with R30G, H31N, A35S, T50S, A56S, P58A, S59T, Y60I, R61G
VL: B1 VL
notes: also called h1A11.A8 VH / h1A11VL.1
B4: h1A11.C6 (antibody, V domains shown)
VH: B1 VH with H31N, A56G, S59T, N77S
VL: B1 VL
notes: also called h1A11.C6 VH / h1A11VL.1
B5: h1A11.E12 (antibody, V domains shown)
VH: B1 VH with H31Y, S53G, A56E, S59N, S97A, Y107F
VL: B1 VL with E27Q, D28E, S31R, A43S, Y49F, N52S, N53V, F71S, N92T, N93Y
notes: also called h1A11.E12 VH / h1A11.E12 VL
B6: h1A11.G3 (antibody, V domains shown)
VH: B1 VH with H31Y, A35S, T50S, S53G, A56G, P58A, S97A
VL: B1 VL with E27Q, D28E, S31R, A43S, Y49F, N52S, N53V, F71S, N92T, N93Y
notes: also called h1A11.G3 VH / h1A11.E12 VL
B7: h1A11.B4 (antibody, V domains shown)
VH: B1 VH with R30S, H31N, A56G, W57T, P58T, S59Y, S97A
VL: B1 VL with E27Q, S31Y, Y49F, N53I, Y87F, N92D, N93Y, Y94V
notes: also called h1A11VH.1 / h1A11.B4 VL
B8: h1A11.F5 (antibody, V domains shown)
VH: B1 VH with S97A
VL: B1 VL with E27Q, D28E, S31R, A43S, Y49F, N52S, N53V, F71S, N92T, N93Y
notes: also called h1A11.F5 VH / h1A11.E12 VL
B9: h1A11.A2 (antibody, V domains shown)
VH: B1 VH with R30S, H31N, A56G, W57T, P58T, S59Y, S97A
VL: B1 VL with E27Q, S31I, A43S, Y49F, N53D, N92D, N93Y, Y94V
notes: also called h1A11VH.1 / h1A11.A2 VL
B10: h1A11.A7 (antibody, V domains shown)
VH: B1 VH with R30S, H31N, A56G, W57T, P58T, S59Y, S97A
VL: B1 VL with E27Q, S31I, Y49F, N52S, N53D, N92D, N93Y
notes: also called h1A11VH.1 / h1A11.A7 VL
B11: h1A11.A12 (antibody, V domains shown)
VH: B1 VH with R30S, H31N, A56G, W57T, P58T, S59Y, S97A
VL: B1 VL with E27Q, S31Y, A43S, Y49F, N52S, N53S, Y87F, N92D, N93W
notes: also called h1A11VH.1 / h1A11.A12 VL

Molecular target: T1, mouse DLL4 extracellular domain (mouse, UniProt Q9JI71 27-532)
T1 construct: extracellular domain; also called muDLL4 ECD; murine DLL4
T1 sequence (Q9JI71 27-532): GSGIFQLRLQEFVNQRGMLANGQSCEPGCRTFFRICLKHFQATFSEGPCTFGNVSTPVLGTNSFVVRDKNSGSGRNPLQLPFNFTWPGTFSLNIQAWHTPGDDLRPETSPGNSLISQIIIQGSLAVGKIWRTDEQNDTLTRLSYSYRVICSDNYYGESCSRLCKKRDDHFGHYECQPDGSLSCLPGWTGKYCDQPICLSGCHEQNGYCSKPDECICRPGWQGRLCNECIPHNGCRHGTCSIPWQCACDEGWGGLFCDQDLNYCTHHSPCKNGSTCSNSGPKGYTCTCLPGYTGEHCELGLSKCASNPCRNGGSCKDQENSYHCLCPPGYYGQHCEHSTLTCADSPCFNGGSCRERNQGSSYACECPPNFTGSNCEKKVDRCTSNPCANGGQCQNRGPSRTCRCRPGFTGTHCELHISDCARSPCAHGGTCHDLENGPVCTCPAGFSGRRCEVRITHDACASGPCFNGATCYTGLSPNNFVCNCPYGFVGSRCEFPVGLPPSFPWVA
Test: SPR (Biacore)
Experimental: (§1) The BIACORE® surface plasmon resonance assay (Biacore, Inc., Piscataway, N.J., US) determines the affinity of antibodies with kinetic measurements of on-rate and off-rate constants. Binding of DLL4 antibodies to a purified recombinant DLL4 extracellular domain (ECD) was determined by surface plasmon resonance-based measurements with a Biacore® instrument (either a Biacore 2000, Biacore 3000, or Biacore T100; GE Healthcare, Piscataway, N.J., US) using running buffer HBS-EPB (10 mM HEPES [pH 7.4], 150 mM NaCl, 3 mM EDTA, 0.1 mg/ml BSA and 0.005% surfactant P20) at 25° C. For example, approximately 9000 RU of goat anti-human Fc specific polyclonal antibody (Thermo Fisher Scientific Inc., Rockford, Ill., US) diluted in 10 mM sodium acetate (pH 4.5) is directly immobilized across a CMS research grade biosensor chip using a standard amine coupling kit according to manufacturer's instructions and procedures at 25 μg/ml. Unreacted moieties on the biosensor surface were blocked with ethanolamine. For kinetic analysis, rate equations derived from the 1:1 Langmuir binding model were fitted simultaneously to multiple antigen injections (using global fit analysis) with the use of Scrubber 2 (BioLogic Software), Biacore Biaevaluation 4.0.1 software or Biacore T100 Evaluation software. Purified antibodies were diluted in running buffer for capture across goat anti-human Fc reaction surfaces. Antibodies to be captured as a ligand (1 μg/ml) were injected over reaction matrices at a flow rate of 10 μl/min. During the assay, all measurements were referenced against the capture surface alone (i.e., with no captured anti-DLL4 antibody). […] The equilibrium dissociation constant KD (M) of the reaction between antibodies and the target antigen was then calculated from the kinetic rate constants by the following formula: KD=Koff/Kₒₙ. Binding was recorded as a function of time and kinetic rate constants were calculated.

Kd [nM]	koff [s⁻¹]	kon [M⁻¹ s⁻¹]	Binder
0.16	3.12e-05	198000	B1
0.18	3.54e-05	198000	B2
0.18	3.27e-05	187000	B3
0.12	2.34e-05	203000	B4
0.35	5.44e-05	156000	B5
0.35	4.04e-05	117000	B6
5.2	0.0025	479000	B7
0.28	3.97e-05	143000	B8
5	0.000904	181000	B9

Molecular target: T2, rat DLL4 extracellular domain (rat, UniProt D3ZHH1 28-530)
T2 construct: extracellular domain; also called ratDLL4 ECD
T2 sequence (D3ZHH1 28-530): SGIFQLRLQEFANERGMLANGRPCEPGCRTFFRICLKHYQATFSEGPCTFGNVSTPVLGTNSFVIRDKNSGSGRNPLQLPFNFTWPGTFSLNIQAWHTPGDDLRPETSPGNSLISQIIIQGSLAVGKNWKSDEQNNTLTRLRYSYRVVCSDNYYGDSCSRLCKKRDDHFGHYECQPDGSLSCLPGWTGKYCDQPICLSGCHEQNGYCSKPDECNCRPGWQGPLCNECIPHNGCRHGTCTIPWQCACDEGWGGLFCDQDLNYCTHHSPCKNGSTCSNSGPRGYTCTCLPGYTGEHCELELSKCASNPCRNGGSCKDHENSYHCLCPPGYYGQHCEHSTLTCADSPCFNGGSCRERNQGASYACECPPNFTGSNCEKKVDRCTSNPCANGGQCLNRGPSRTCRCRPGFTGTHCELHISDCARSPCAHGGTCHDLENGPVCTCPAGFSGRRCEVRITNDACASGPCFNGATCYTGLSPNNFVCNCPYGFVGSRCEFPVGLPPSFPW
Test: SPR (Biacore)
Experimental: as §1

Kd [nM]	koff [s⁻¹]	kon [M⁻¹ s⁻¹]	binding result	Binder
6	0.000772	129000		B1
8.8	0.00102	116000		B2
47	0.0065	139000		B3
			no binding	B10
18	0.00305	169000		B4
1.6	0.000175	108000		B5
8.6	0.00101	118000		B6
			no binding	B7
5.8	0.000679	116000		B8
			no binding	B11
			no binding	B9

Molecular target: T3, human DLL4, full length, on cells (human, UniProt Q9NR61 27-685)
T3 construct: also called huDLL4 cells; human DLL4-293G
T3 sequence (Q9NR61 27-685 limits assumed): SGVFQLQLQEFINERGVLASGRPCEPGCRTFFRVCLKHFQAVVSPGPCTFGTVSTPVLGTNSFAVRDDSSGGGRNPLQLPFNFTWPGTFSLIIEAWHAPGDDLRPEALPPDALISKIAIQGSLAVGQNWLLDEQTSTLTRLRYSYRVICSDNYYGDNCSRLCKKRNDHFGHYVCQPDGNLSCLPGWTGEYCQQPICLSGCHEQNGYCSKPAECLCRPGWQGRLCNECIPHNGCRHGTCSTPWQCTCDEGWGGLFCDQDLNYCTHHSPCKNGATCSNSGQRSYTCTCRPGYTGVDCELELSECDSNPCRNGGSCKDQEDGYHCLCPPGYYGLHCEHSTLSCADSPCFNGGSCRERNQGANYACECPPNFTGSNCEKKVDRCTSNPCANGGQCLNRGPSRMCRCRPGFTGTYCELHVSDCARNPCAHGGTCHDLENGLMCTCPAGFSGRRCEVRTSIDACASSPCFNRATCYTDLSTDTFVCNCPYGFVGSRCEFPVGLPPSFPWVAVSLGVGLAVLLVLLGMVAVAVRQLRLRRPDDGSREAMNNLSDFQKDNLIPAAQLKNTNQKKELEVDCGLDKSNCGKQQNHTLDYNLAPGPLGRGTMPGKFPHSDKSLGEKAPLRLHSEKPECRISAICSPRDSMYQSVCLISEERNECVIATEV
Test: FACS, direct binding to DLL4 cells
Experimental: (§2) Stable cell lines overexpressing cell-surface DLL4 were harvested from tissue culture flasks, washed four times and resuspended in phosphate buffered saline (PBS) containing 1% bovine serum albumin and 1 mM CaCl₂ (FACS buffer). 1.5×10⁵ cells were incubated with antibodies at various concentrations in FACS buffer for 60 minutes on ice. […] Following an incubation on ice (4° C., 60 minutes), cells were washed three times and resuspended in FACS buffer. Fluorescence was measured using a Becton Dickinson FACSCalibur-HTS (Becton Dickinson, San Jose, Calif., US). Data were analyzed using Graphpad Prism software and EC₅₀ values were reported as the concentration of antibody to achieve 50% of maximal DLL4 antibodies binding to DLL4 expressing cells.
(§3) The hu1A11.1 affinity matured clones (Table 22) were expressed, purified, and further characterized in vitro. Their activities of binding to cell-bound DLL4 and inhibiting cell-bound DLL4-induced Notch activation were further examined using methods described in Examples 1.3 and 1.6, and are summarized in Table 26 (below).

EC50 [nM]	Binder
2.23	B1
2.48	B2
3.16	B3
2.17	B10
2.45	B4
0.996	B5
3.59	B6
2.15	B7
1.17	B8
1.77	B11
2.38	B9

Molecular target: T4, mouse DLL4 on cells (mouse, UniProt Q9JI71 27-686)
T4 construct: whole, on cells; also called mouse DLL4-293G; mu DLL4 cells
T4 sequence (Q9JI71 27-686): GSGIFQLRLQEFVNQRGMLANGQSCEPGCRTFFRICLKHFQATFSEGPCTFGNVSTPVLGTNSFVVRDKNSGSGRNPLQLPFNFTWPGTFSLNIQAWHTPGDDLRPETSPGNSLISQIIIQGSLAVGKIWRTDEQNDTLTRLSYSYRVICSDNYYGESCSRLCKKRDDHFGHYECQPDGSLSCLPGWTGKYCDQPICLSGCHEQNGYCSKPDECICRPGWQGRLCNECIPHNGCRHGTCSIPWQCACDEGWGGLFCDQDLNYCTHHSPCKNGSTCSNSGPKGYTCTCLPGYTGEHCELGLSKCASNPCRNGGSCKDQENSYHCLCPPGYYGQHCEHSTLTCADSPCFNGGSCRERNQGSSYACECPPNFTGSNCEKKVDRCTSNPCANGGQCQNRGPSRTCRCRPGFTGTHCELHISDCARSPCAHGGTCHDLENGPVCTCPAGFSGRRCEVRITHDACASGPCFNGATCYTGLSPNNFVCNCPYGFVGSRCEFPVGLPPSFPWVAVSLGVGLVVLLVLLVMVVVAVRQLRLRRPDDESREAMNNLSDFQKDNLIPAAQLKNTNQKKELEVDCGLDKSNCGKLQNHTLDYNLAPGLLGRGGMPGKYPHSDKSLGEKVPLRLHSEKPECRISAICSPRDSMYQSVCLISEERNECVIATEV
Test: FACS, direct binding to DLL4 cells
Experimental: as §2, §3

EC50 [nM]	Binder
0.636	B1
0.5	B2
0.744	B3
0.625	B10
0.517	B4
1.61	B5
1.4	B6
0.665	B7
0.46	B8
0.568	B11
0.634	B9

Molecular target: T5, cynomolgus monkey DLL4 extracellular domain (cynomolgus monkey)
T5 construct: extracellular domain; also called cynoDLL4 ECD; Cyno DLL4
Test: SPR (Biacore)
Experimental: as §1

Kd [nM]	koff [s⁻¹]	kon [M⁻¹ s⁻¹]	Binder
0.12	2.1e-05	171000	B1
0.2	3.35e-05	170000	B2
0.15	2.4e-05	160000	B3
7.8	0.00124	158000	B10
0.18	3.12e-05	171000	B4
0.28	3.84e-05	137000	B5
0.17	1.73e-05	99000	B6
6.9	0.00099	143000	B7
0.17	2e-05	118000	B8
10	0.00162	158000	B11
3.9	0.000527	134000	B9

Molecular target: T6, human DLL4 extracellular domain (human, UniProt Q9NR61 27-529)
T6 construct: purified recombinant ECD; biotin-labelled or 6xHis-tagged depending on the assay; also called huDLL4 ECD; hu DLL4 ECD
T6 sequence (Q9NR61 27-529 limits assumed): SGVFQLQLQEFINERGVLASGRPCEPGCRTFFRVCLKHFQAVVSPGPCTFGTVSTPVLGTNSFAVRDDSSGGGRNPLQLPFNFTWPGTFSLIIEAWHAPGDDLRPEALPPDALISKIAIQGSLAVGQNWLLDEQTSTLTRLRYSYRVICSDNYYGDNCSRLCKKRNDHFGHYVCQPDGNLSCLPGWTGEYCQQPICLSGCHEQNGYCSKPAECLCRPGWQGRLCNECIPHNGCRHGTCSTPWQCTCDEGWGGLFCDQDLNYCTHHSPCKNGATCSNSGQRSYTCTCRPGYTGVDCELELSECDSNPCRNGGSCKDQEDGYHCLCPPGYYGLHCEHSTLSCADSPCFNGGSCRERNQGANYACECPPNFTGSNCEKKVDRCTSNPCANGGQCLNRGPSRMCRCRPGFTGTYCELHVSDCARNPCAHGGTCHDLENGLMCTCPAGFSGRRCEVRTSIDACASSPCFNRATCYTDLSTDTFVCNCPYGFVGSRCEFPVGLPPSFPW
Test: SPR (Biacore)
Experimental: as §1

Kd [nM]	koff [s⁻¹]	kon [M⁻¹ s⁻¹]	Binder
0.036	6.62e-06	182000	B1
0.15	2.66e-05	183000	B2
0.062	1.08e-05	174000	B3
5.7	0.000973	170000	B10
0.04	7.18e-06	178000	B4
0.22	3.26e-05	149000	B5
0.087	9.39e-06	109000	B6
5.2	0.000823	157000	B7
0.075	9.82e-06	131000	B8
7.6	0.00132	173000	B11
3	0.000421	142000	B9

Molecular target: T3, human DLL4, full length, on cells
Test: cell-based or functional assay

Inhibition of Notch Activation via DLL4 cells, Notch reporter assay [nM]	Binder
0.746	B1
0.904	B2
1.33	B3
2.92	B10
0.894	B4
0.208	B5
1.84	B6
3.28	B7
0.484	B8
1.66	B11
3.68	B9

Molecular target: T4, mouse DLL4 on cells
Test: cell-based or functional assay

Inhibition of Notch Activation via DLL4 cells, Notch reporter assay [nM]	Binder
1.17	B1
1.18	B2
1.25	B3
1.79	B10
1.19	B4
0.266	B5
2.35	B6
1.08	B7
0.649	B8
0.832	B11
0.854	B9
